In patent publication US20040082080A1, “Method of measuring molecular interactions” (priority 2002, published 2004):

Molecular target: T1, low affinity nerve growth factor receptor, gp75 (Homo sapiens, UniProt P08138)
T1 construct: were expressed endogenously in A875 cells; endogenous in cells; host or cells: A875 cells
Assay: FCS autocorrelation on A875 cells, gp75 receptor stoichiometry
Format: cell-based
Conditions: 180 nM NGF for 5 minutes
Excerpt: Macromolecular stoichiometry, i.e., the quantitative proportions with which two macromolecules interact, of a target can be determined from autocorrelation data. Starting with Equation 4, macromolecular stoichiometry can be calculated if it is assumed that intersystem crossing and particle diffusion are independent sources of fluctuation. The first occurs in the microsecond (μs) time domain and results from intersystem crossing of fluorophores between the singlet and triplet states. The second occurs in the millisecond (ms) time domain, and results from the diffusion of particles into and out of the confocal volume. […]
where F1N′P defines the total number of fast diffusing particles, i.e., uncomplexed fluorescently tagged probes, and F2N′P defines the total number of slow diffusing complexes formed. […] S is obtained with Equation 8 for each target concentration using the parameter values obtained by fitting to Equation 6 and the calibration factor determined with Equation 7
The samples were analyzed using a fluorescence correlation spectroscopy instrument configured to distinct fluorescence emission at different wavelengths and a data processing program capable of autocorrelation, crosscorrelation, Fourier transform and Moment analyses. […]

T1 sequence (P08138 29-427): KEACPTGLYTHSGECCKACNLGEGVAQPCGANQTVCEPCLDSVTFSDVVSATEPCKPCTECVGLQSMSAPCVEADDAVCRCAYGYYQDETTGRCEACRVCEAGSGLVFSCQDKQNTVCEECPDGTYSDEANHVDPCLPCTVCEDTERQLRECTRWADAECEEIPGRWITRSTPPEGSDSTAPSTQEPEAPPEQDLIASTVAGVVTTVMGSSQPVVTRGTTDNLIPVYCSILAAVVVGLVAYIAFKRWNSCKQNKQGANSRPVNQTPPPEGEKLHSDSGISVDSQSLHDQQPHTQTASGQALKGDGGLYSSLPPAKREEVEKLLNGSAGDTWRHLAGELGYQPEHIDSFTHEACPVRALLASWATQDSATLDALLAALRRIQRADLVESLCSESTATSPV

In the case of nerve growth factor [NGF], the “stoichiometry calculation for gp75 (Equation 8)” value is reported as 0.94.
